According to publication PMC5880808, “A lever-like transduction pathway for long-distance chemical- and mechano-gating of the mechanosensitive Piezo1 channel” (Nature Communications, 2018):

Tests used:
Assay in all cases: SEC; Superose-6 10/300 GL (FPLC) in 25 mM Na-PIPES pH 7.2, 140 mM NaCl, 2 mM DTT, 0.026% C12E10; oligomeric state judged from the peak position against wild-type mPiezo1
[1] = target: mPiezo1-ΔL15-16 (657-677) (mouse) (UniProt E2JF22)
[2] = target: mPiezo1-ΔL19-20 (870–921) (mouse) (UniProt E2JF22)
mouse Piezo1 (mouse) = mouse Piezo1 (mouse) (UniProt E2JF22); conditions: remark: other sources report otherwise

A stoichiometry N [1] of 3 was found for “mPiezo1-ΔL15-16 (657-677), E2JF22 1-656; E2JF22 678-2547” in this work.

A stoichiometry N [2] of 3 was found for “mPiezo1-ΔL19-20 (870–921), E2JF22 1-869; E2JF22 922-2547” in this work.

A stoichiometry N (mouse Piezo1 (mouse)) of 3 was found for mouse Piezo1, E2JF22 1-2547 in this work.
